Sequences and labels used below:
B1: PF411 (ssRNA)
RNA: GGGAGACAAGAAUAAACGCUCAACAACCCAACCAUCUAGAGCUUCGAACCAUGGUAUACAAGGGAACACAAAAUUCGCGGAGGCUCCAACAGGCGGC
modifications: 2'-F C and U
B2: PF381 (ssRNA)
RNA: GGGAGACAAGAAUAAACGCUCAAAGGAUCACACAAACAUCGGUCAAUAAAUAAGUAUUGAUAGCGGGGAUAUUCGACAGGAGGCUCACAACAGGC
modifications: 2'-F C and U
B3: PF422 (ssRNA)
RNA: GGGAGACAAGAAUAAACGCUCAACGUCAAGCCAGAAUCCGGAACACGCGAGAAAACAAAUCAACGACCAAUCGAUUCGACAGGAGGCUCACAAAGGC
modifications: 2'-F C and U
B4: PF380 (ssRNA)
RNA: GGGAGACAAGAAUAAACGCUCAACGAGCAAAAGUACUCACGGGACCAGGAGAUCAGCAACACGCGAGACGAAAUUCGACAGGAGGCUCACAACAGGC
modifications: 2'-F C and U
B5: PA330 (ssRNA)
RNA: GGGAGACAAGAAUAAACGCUCAAAACGCACAAAGUAAGGGACGGGAUGGAUCGCCCUAGGCUGGAAGGGAACUUCGACAGGAGGCUCACAACAGGC
modifications: 2'-NH2 on all C and U
B6: PA341 (ssRNA)
RNA: GGGAGACAAGAAUAAACGCUCAAGCCCCAAACGCAAGCGAGCAUCCGCAACAGGGAAGAAGACAGACGAAUGAUUCGACAGGAGGCUCACAACAGGC
modifications: 2'-NH2 on all C and U
B7: PA477 (ssRNA)
RNA: GGGAGACAAGAAUAAACGCUCAAGCCCCAAACGCAAGUGAGCAUCCGCAACAGGGAAGAAGACAGACGAAUGAUUCGACAGGAGGCUCACAACAGGC
modifications: 2'-NH2 on all C and U [2'-NH2 on all C and U; n18 in fixed region = G]
B8: PA328 (ssRNA)
RNA: GGGAGACAAGAAUAAACGCUCAAGCAAAAGGCGUAAAUACACCUCCGCAACUGGGAAGAAGACGCAGGGACGGUUCGACAGGAGGCUCACAACAGGC
modifications: 2'-NH2 on all C and U [2'-NH2 on all C and U; N83 in fixed region = A]
B9: PA337 (ssRNA)
RNA: GGGAGACAAGAAUAAACGCUCAAACAGCUACAAGUGGGACAACAGGGUACAGCGGAGAGAAACAUCCAAACAAGUUCGACAGGAGGCUCACAACAGGC
modifications: 2'-NH2 on all C and U
B10: PA338 (ssRNA)
RNA: GGGAGACAAGAAUAAACGCUCAAUCAAGUAAGGAGGAAGGGUCGUGACAGAAAAACGAGCAAAAAACGCGAGUUCGACAGGAGGCUCACAACAGGC
modifications: 2'-NH2 on all C and U
B11: PA342 (ssRNA)
RNA: GGGAGACAAGAAUAAACGCUCAACCAACGCGCACCCCGCAGCAAACGAAAUUGGGGAGACAGGUGCAAGACAGUUCGACAGGAGGCUCACAACAGGC
modifications: 2'-NH2 C and U
B12: PA329 (ssRNA)
RNA: GGGAGACAAGAAUAAACGCUCAAGAAGGAUACUUAGGACUACGUGGGAUGGGAUGAAAUGGGAGAACGGGAGUUCGACAGGAGGCUCACAACAGGC
modifications: 2'-NH2 C and U
B13: PA301 (ssRNA)
RNA: GGGAGACAAGAAUAAACGCUCAAACACAAAUCGGGCAGGGACUGGGUUGGGCACGGCAGGGCGCCUUCGACAGGAGGCUCACAACAGGC
modifications: 2'-NH2 C and U
B14: PA352 (ssRNA)
RNA: GGGAGACAAGAAUAAACGCUCAAGAUCAUCGCAGUAUCGGAAUCGACCCUCAGUGGGUGACAUGCGGACAAGUUCGACAGGAGGCUCACAACAGGC
modifications: 2'-NH2 C and U
B15: PA351 (ssRNA)
RNA: GGGAGACAAGAAUAAACGCUCAAUGAUAGCACAGUGUAUAAGAAAACGCAACACCGCGCGCGGAAAGAGUUCGACAGGAGGCUCACAACAGGC
modifications: 2'-NH2 C and U
B16: PA353 (ssRNA)
RNA: GGGAGACAAGAAUAAACGCUCAAGUACCGGGAAGGGAUGAACUGGGAUAUGGGAACGGAGGUCAGAGGCACGAUUCGACAGGAGGCUCACAACAGGC
modifications: 2'-NH2 C and U
B17: PA327 (ssRNA)
RNA: GGGAGACAAGAAUAAACGCUCAAUAAGACAACGAACAGACAGAAGCGAAAAAGGGGCGCCGCAGCAACAACAAAUUCGACAGGAGGCUCACAACAGGC
modifications: 2'-NH2 C and U
B18: PA315 (ssRNA)
RNA: GGGAGACAAGAAUAAACGCUCAAUAACAAAGCAGCAAAGUACCAGAGGAGAGUUGGCAGGGUUUAGGCAGCUUCGACAGGAGGCUCACAACAGGC
modifications: 2'-NH2 C and U
B19: PA320 (ssRNA)
RNA: GGGAGACAAGAAUAAACGCUCAAGAGUAUCACACAAACCGGCACGGACUAAGCAGAAGGAGGUACGGAAGAUUCGACAGGAGGCUCACAACAGGC
modifications: 2'-NH2 C and U
B20: PA325 (ssRNA)
RNA: GGGAGACAAGAAUAAACGCUCAAACGAGAGCACCAAGGCAACAGAUGCAGAAGAAGUGUGCGCGCGCGAAAUUCGACAGGAGGCUCACAACAGGC
modifications: 2'-NH2 C and U
B21: PA336 (ssRNA)
RNA: GGGAGACAAGAAUAAACGCUCAAGAUCAUAACGAGAGGAGAGGGAGAACUACACGCGCGCGAGGAAAGAGUUCGACAGGAGGCUCACAACAGGC
modifications: 2'-NH2 C and U
B22: PA463 (ssRNA)
RNA: GGGAGACAAGAAUAAACGCUCAAGGGAAACGGAAAGGGACAAGGCGAACAGACGAGAAGUAGACGGAGUAGGAUUCGACAGGAGGCUCACAACAGGC
modifications: 2'-NH2 C and U
B23: PA447 (ssRNA)
RNA: GGGAGACAAGAAUAAACGCUCAAAACAGAACUGAUCGGCGCAGGUUGAUAAAGGGGCAGCGCGAAGAUCACAAUUCGACAGGAGGCUCACAACAGGC
modifications: 2'-NH2 C and U
B24: PA318 (ssRNA)
RNA: GGGAGACAGAAUAAACGCUCAAAGACCAAGGGACAGCAGCGGGGAAAAACAGAUCACAGCUGUAAGAGGGCUUCGACAGGAGGCUCACAACAGGC
modifications: 2'-NH2 C and U
B25: PA319 (ssRNA)
RNA: GGGAGACAAGAAUAAACGCUCAAAGUCGGGGAUAGAAACACACUAAGAAGUGCAUCAGGUAGGAGAUAAUUCGACAGGAGGCUCACAACAGGC
modifications: 2'-NH2 C and U [all C and U 2'-NH2]
B26: PA354 (ssRNA)
RNA: GGGAGACAAGAAUAAACGCUCAAGCAAUGGAACGCUAGGAGGGAACAUAAGCAGGGCGAGCGGAGUCGAUAGCUUCGACAGGAGGCUCACAACAGGC
modifications: 2'-NH2 C and U
B27: PA335 (ssRNA)
RNA: GGGAGACAAGAAUAAACGCUCAAUGAUAUACACGUAAGCACUGAACCAGGCUGAGAUCCAUCAGUGCCCAGGUUCGACAGGAGGCUCACAACAGGC
modifications: 2'-NH2 C and U

Where only a bound is given, the exact number is not on record here.

The target of one data set is T1, P-selectin (PS-Rg) (Homo sapiens, UniProt P16109 P16109:42-321). The data set can be described thus: inhibition; sialyl-LewisX. The following applies: tags: human IgG Fc fusion; chain copies: 2 (stated dimer). How it is done: The ability of evolved RNA pools or cloned ligands to inhibit the binding of PS-Rg to sialyl-Lewis^x was tested in competitive ELISA assays (C. Foxall et al., 1992, supra). For these assays, the wells of Corning (25801) 96 well microtiter plates were coated with 100 ng of a sialyl-Lewis^x/BSA conjugate, air dried overnight, washed with 300 μl of PBS(−) and then blocked with 1% BSA in HSMC for 60 min at room temperature. RNA ligands were incubated with PS-Rg in HSMC/1% BSA at room temperature for 15 min. After removal of the blocking solution, 50 μl of PS-Rg (10 nM) or a PS-Rg (10 nM)/RNA ligand mix was added to the coated, blocked wells and incubated at room temperature for 60 minutes. The binding solution was removed, wells were washed with 300 μl of PBS(−) and then probed with HRP conjugated anti-human IgG, at room temperature to quantitate PS-Rg binding. After a 30 minute incubation at room temperature in the dark with OPD peroxidase substrate (Sigma P9187), the extent of PS-Rg binding and percent inhibition was determined from the OD₄₅₀.
T1 sequence (P16109 42-321, one chain of several): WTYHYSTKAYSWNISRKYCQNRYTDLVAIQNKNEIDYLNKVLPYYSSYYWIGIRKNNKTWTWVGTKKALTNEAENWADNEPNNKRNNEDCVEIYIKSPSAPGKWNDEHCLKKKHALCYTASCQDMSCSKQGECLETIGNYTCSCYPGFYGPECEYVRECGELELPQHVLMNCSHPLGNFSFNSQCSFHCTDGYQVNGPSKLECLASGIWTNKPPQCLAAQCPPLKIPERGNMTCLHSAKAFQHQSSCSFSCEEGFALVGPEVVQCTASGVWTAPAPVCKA
B1: inhibition was half-maximal at 2 nM (IC50).

B2: half-maximal inhibition (IC50) was put at 1 nM.

For the molecule B3, inhibition was half-maximal at 3 nM (IC50).

On to B4, for which it took 4 nM to reach half-maximal inhibition (IC50).

Another data set addresses T1, P-selectin (PS-Rg). Nature of the data set: filter; 37 C. The settings on record: tags: human IgG1 Fc fusion; chain copies: dimer; label: 32P.
For B5, the Kd (commonly the equilibrium constant for the complex coming apart) worked out at 0.237 nM.

Molecule B6 displayed an equilibrium dissociation constant (Kd) of 0.44 nM.

As for B7, binding was characterised by a dissociation constant (Kd) of 0.57 nM.

B8: binding was put at a Kd of 3 nM.

The molecule B9 registered a dissociation constant (Kd) of 4.5 nM.

The molecule B10 showed a Kd of 57 nM.

Staying with this data set, now noted: tags: human IgG Fc fusion; chain copies: 2 (stated dimer).
Take B11: the Kd worked out at 4 nM.

B12 showed a Kd of 4 nM.

For the molecule B13, binding was put at a Kd of 2.5 nM.

In turn, B14 came in with a Kd of 6 nM.

B15 came in with a Kd of 2 nM.

On to B16, for which the Kd came to 9 nM.

As to B17, the Kd was found to be 13.5 nM.

In the case of B18, binding was put at a Kd of 5 nM.

B19 had a Kd of 4.5 nM.

In turn, B20 displayed a Kd of more than 10 nM.

B21 gave a Kd of 15 nM.

In turn, B22 returned a Kd of 8 nM.

As for B23, the dissociation constant (Kd) was 50 nM.

Molecule B24 registered a Kd of 2 nM.

Regarding B25, the Kd was found to be 11 nM.

In turn, B26 came in with a Kd of 5 nM.

In the case of B27, binding was characterised by a dissociation constant (Kd) of 10.5 nM.

These data come from patent publication US20030059769, “High affinity nucleic acid ligands to lectins” (published 2003).
